The source of these data is IntAct's records for PubMed 22184064.

To fix the notation:
B1: Cyclin-Y (Homo sapiens), Q8ND76-1 (parent)
chain: MGNTTSCCVSSSPKLRRNAHSRLESYRPDTDLSREDTGCNLQHISDRENIDDLNMEFNPSDHPRASTIFLSKSQTDVREKRKSLFINHHPPGQIARKYSSCSTIFLDDSTVSQPNLKYTIKCVALAIYYHIKNRDPDGRMLLDIFDENLHPLSKSEVPPDYDKHNPEQKQIYRFVRTLFSAAQLTAECAIVTLVYLERLLTYAEIDICPANWKRIVLGAILLASKVWDDQAVWNVDYCQILKDITVEDMNELERQFLELLQFNINVPSSVYAKYYFDLRSLAEANNLSFPLEPLSRERAHKLEAISRLCEDKYKDLRRSARKRSASADNLTLPRWSPAIIS

The first test covers variants of B1. The note with it: with cdk16_human CDK16, Q00536.
Chain of cdk16_human CDK16, Q00536 (Q00536 whole entry): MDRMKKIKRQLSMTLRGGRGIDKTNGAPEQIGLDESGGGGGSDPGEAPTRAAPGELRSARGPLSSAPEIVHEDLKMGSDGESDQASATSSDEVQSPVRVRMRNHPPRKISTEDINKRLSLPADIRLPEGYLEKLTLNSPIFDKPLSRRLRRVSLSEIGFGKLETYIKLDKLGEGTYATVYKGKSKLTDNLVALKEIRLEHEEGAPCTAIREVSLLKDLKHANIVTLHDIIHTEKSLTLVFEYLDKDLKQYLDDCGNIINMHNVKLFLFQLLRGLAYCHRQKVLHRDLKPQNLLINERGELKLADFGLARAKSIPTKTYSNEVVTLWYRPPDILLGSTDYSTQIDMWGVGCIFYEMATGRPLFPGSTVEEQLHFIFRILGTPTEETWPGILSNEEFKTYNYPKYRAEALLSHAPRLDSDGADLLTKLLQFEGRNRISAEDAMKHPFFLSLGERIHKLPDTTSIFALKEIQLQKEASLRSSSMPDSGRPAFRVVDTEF
L222A;S224A: the “effect of a mutation on the interaction” value is listed as “decreasing interaction strength”.

Variants of B1 are the subject of the next test. The following applies: with cdk16_human CDK16, Q00536. The source holds these as a separate data set.
On to L222A;S224A, for which the “effect of a mutation on the interaction” value is listed as “disrupting interaction strength”.
